In US20130266517A1 (published 2013) one finds Kd, koff and kon data, which are given here for 17 molecules.

Changes are numbered by the printed parent chain.

Test [1] concerns the target T1, alpha-synuclein (natural human wildtype alpha-synuclein) (human, UniProt P37840 1-140). In words: BLI, ForteBio Octet QK; apparent KD. The method, then: (§1) Binding kinetic of humanized 1H7 antibodies were also measured by bio-layer interferometry (BLI) using a ForteBio Octet QK instrument (ForteBio, Menlo Park, Calif.). Detailed binding kinetic parameters (association rate, apparent ka, dissociation rate, apparent kd, and affinity constant, apparent KD) were determined for chimeric 1H7 and various humanized 1H7 antibodies (Tables 6-7, FIGS. 4A-C). Apparent ka, apparent kd and apparent KD are binding kinetic parameters obtained using ForteBio assay formats. These parameters differ from ka, kd and KD measured using Biocore assays due to, e.g., avidity effects associated with ForteBio assay formats.

For test [2], the target named is T1, alpha-synuclein (natural human wildtype …). In words: BLI, ForteBio Octet QK; apparent kd. The method, then:
as §1
On the technique in general: In BLI a coated tip is dipped into the sample, and binding shifts an interference pattern.

The target is the same in test [3]. The test is described as follows: BLI, ForteBio Octet QK; apparent ka. As for the experimental part: as §1
For test [4] the target is unchanged. The test is described as follows: Biacore (SPR) full kinetic analysis. As for the experimental part: Biacore full binding kinetic analysis of antibodies were carried out using Biacore. Detailed binding kinetic parameters (association rate, ka, dissociation rate, kd, and affinity constant, KD) were determined for murine 1H7 (FIG. 3A), chimeric 1H7 (FIG. 3B) and humanized 1H7 (Hu1H7VHv3-Hu1H7VLv3, Hu1H7VHv3-Hu1H7VLv1, Hu1H7VHv4-Hu1H7VLv1) antibodies (FIG. 3C).
(In general: In SPR one partner is held on a chip, and binding of the other changes the refractive index at the surface.)

B1: Humanized 1H7 H2L1 (Hu1H7VHv2-Hu1H7VLv1) (antibody, V domains shown)
VH: QVQLVQSGAEVKKPGASVKVSCKASGYSFTSYYIHWVRQAPGQGLEWIGWIYPGSGNTKYSEKFKGRATLTADTSTSTAYMELRSLRSDDTAVYFCARDGCYGFAYWGQGTLVTVSS
VL: DIQLTQSPSSLSASVGDRVTITCKASQSVDYDGDSYMNWYQQKPGKAPKFLICAASNLESGVPSRFSGSGSGTDFTLTISSLQPEDAATYYCQQSNEDPFTFGQGTKLEIK
Regarding B1, in test [1], the Kd was determined as 0.0072 nM. For the same molecule, the koff – broadly, a measure of how fast the partners let go of each other – in test [2] was found to be 4.2e-06 s⁻¹. For the same molecule, the kon – broadly, the second-order rate constant of association – in test [3] is 580000 M⁻¹ s⁻¹.

B2: Humanized 1H7 H4L4 (Hu1H7VHv4-Hu1H7VLv4) (antibody, V domains shown)
VH: B1 VH with C101S
VL: B1 VL with C53Y, A87F
For the molecule B2, the Kd in test [1] was 4.4 nM. For the same molecule, the koff in test [2] came to 0.0023 s⁻¹. For the same molecule, in test [3], the kon amounted to 520000 M⁻¹ s⁻¹.

B3: Humanized 1H7 H4L1 (Hu1H7VHv4-Hu1H7VLv1) (antibody, V domains shown)
VH: B1 VH with C101S
VL: B1 VL
Regarding B3, in test [4], the Kd stood at 33.9 nM, the koff turned out to be 0.033 s⁻¹ and the kon came to 970000 M⁻¹ s⁻¹.

B4: Humanized 1H7 H4L2 (Hu1H7VHv4-Hu1H7VLv2) (antibody, V domains shown)
VH: B1 VH with C101S
VL: B1 VL with C53Y
As to B4, the Kd in test [1] came to 1.7 nM. In addition, the koff in test [2] came to 0.0021 s⁻¹. Besides, the kon in test [3] stood at 1.2e+06 M⁻¹ s⁻¹.

B5: Humanized 1H7 H4L3 (Hu1H7VHv4-Hu1H7VLv3) (antibody, V domains shown)
VH: B1 VH with C101S
VL: B1 VL with A87F
For the molecule B5, in test [1], the Kd was 2.7 nM. Further, the koff in test [2] is 0.002 s⁻¹. The kon in test [3] was determined as 740000 M⁻¹ s⁻¹.

B6: Humanized 1H7 H3L3 (Hu1H7VHv3-Hu1H7VLv3) (antibody, V domains shown)
VH: B1 VH with S28T, I48M, L70M, F95Y
VL: B1 VL with A87F
In test [4], B6 registered a Kd of 9 nM, a koff of 0.011 s⁻¹ and a kon of 1.3e+06 M⁻¹ s⁻¹.

B7: Humanized 1H7 H1L1 (Hu1H7VHv1-Hu1H7VLv1) (antibody, V domains shown)
VH: B1 VH with V11L, R38K
VL: B1 VL
Regarding B7, the Kd in test [1] was determined as 4.8 nM. In test [2], the dissociation rate constant (koff) was 0.0012 s⁻¹. Also, the kon in test [3] was 250000 M⁻¹ s⁻¹.

B8: Humanized 1H7 H5L1 (Hu1H7VHv5-Hu1H7VLv1) (antibody, V domains shown)
VH: B1 VH with S28T, I48M, L70M, F95Y, C101S
VL: B1 VL
For the molecule B8, in test [4], the Kd is 64 nM, the koff was 0.056 s⁻¹ and the kon worked out at 880000 M⁻¹ s⁻¹.

B9: Humanized 1H7 H5L3 (Hu1H7VHv5-Hu1H7VLv3) (antibody, V domains shown)
VH: B1 VH with S28T, I48M, L70M, F95Y, C101S
VL: B1 VL with A87F
Turning to B9, the Kd in test [1] is 2.6 nM. In addition, the koff in test [2] was determined as 0.002 s⁻¹. For the same molecule, the kon in test [3] was found to be 760000 M⁻¹ s⁻¹.

B10: Humanized 1H7 H5L4 (Hu1H7VHv5-Hu1H7VLv4) (antibody, V domains shown)
VH: B1 VH with S28T, I48M, L70M, F95Y, C101S
VL: B1 VL with C53Y, A87F
With B10, the Kd in test [1] came out at 1.2 nM. In test [2], the dissociation rate constant (koff) came out at 0.0019 s⁻¹. The kon in test [3] stood at 1.6e+06 M⁻¹ s⁻¹.

B11: Humanized 1H7 H1L4 (Hu1H7VHv1-Hu1H7VLv4) (antibody, V domains shown)
VH: B1 VH with V11L, R38K
VL: B1 VL with C53Y, A87F
Turning to B11, in test [1], the Kd worked out at 3.3 nM. Further, the koff in test [2] came out at 0.0058 s⁻¹. Moreover, the kon in test [3] was determined as 1.8e+06 M⁻¹ s⁻¹.

B12: Humanized 1H7 H5L2 (Hu1H7VHv5-Hu1H7VLv2) (antibody, V domains shown)
VH: B1 VH with S28T, I48M, L70M, F95Y, C101S
VL: B1 VL with C53Y
With B12, the Kd in test [1] was found to be 4 nM. The koff in test [2] stood at 0.0021 s⁻¹. Moreover, the kon in test [3] was found to be 520000 M⁻¹ s⁻¹.

B13: Humanized 1H7 H1L3 (Hu1H7VHv1-Hu1H7VLv3) (antibody, V domains shown)
VH: B1 VH with V11L, R38K
VL: B1 VL with A87F
With B13, in test [1], the Kd came out at 2.9 nM. The koff in test [2] is 0.00064 s⁻¹. The kon in test [3] was found to be 220000 M⁻¹ s⁻¹.

B14: Humanized 1H7 H1L2 (Hu1H7VHv1-Hu1H7VLv2) (antibody, V domains shown)
VH: B1 VH with V11L, R38K
VL: B1 VL with C53Y
In the case of B14, in test [1], the Kd stood at 5.8 nM. Besides, in test [2], the koff was 0.009 s⁻¹. For the same molecule, the kon in test [3] was 1.6e+06 M⁻¹ s⁻¹.

B15: Humanized 1H7 H3L1 (Hu1H7VHv3-Hu1H7VLv1) (antibody, V domains shown)
VH: B1 VH with S28T, I48M, L70M, F95Y
VL: B1 VL
Take B15: in test [4], the Kd was 12 nM, the koff is 0.013 s⁻¹ and the on-rate (kon) was 1.1e+06 M⁻¹ s⁻¹.

B16: Humanized 1H7 H2L2 (Hu1H7VHv2-Hu1H7VLv2) (antibody, V domains shown)
VH: B1 VH
VL: B1 VL with C53Y
Regarding B16, the Kd in test [1] was 2 nM. In addition, the koff in test [2] was 0.0046 s⁻¹. The kon in test [3] stood at 2.3e+06 M⁻¹ s⁻¹.

B17: Murine 1H7 (antibody, mouse IgG1, V domains shown)
VH: VQLQQSGPELVKPGTSVKISCKASGYSFTSYYIHWVKQSPGQGLEWIGWIYPGSGNTKYSEKFKGKATLTADTSSSTAYMQLSSLTSEDSAVYFCARDGCYGFAYWGQGTLVTVS
VL: DIVLTQSPASLAVSLGQRATISCKASQSVDYDGDSYMNWYQQKPGQPPKFLICAASNLESGIPARFSGSGSGTDFTLNIHPVEEEDAATYYCQQSNEDPFTFGSGTKLEIK
notes: Mouse IgG1; also called m1H7; mouse 1H7
As to B17, in test [4], the Kd turned out to be 9.5 nM, the koff worked out at 0.0096 s⁻¹ and the kon was determined as 1e+06 M⁻¹ s⁻¹.
